# In patent US9371374 (AbbVie / Abbott, dated 2016):
# Target: HCV Core 134-171-TT peptide (ALRZ-9 peptide) (HCV-1)
# Assay: SPR, captured mAb;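 note: Anti-HCV Core mAbs from hybridoma supernatants held on a rabbit anti-mouse IgG CM5 surface, peptide flowed over 3 min then 4 min dissociation, duplicate concentrations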
Binder,Kd,koff,kon
"HCV 208B-560 (antibody, V domains shown) VH: EVQLQQSGPELEKPGASVKISCKTSGYTFTEYAMHWVKQSHGMSLEWIGGINPSNGNAIYNQIFKDKATLTVDRSSSTAYMGLRSLTFGDSGVYFCVRRQLDFFDYWGQGASLTVSS VL: DIVVTQSPASLAVSLGQRATISCRASQSVSTSRYSYLHWYQQKPGQPPKLLIKYASNLESGVPARFSGSGSGTDFTLNIHPVGEEDTATYYCQHSWEFPFTFGSGTKLEIKR",0.23 nM,0.00026 s⁻¹,1.1e+06 M⁻¹ s⁻¹
"HCV 208A-222 (antibody, V domains shown) VH: EVQLQQSGPELEKPGASVRISCKTSGYTFTEYAMHWVKQSHGKSLEWIGGINPNNGNAIYNQIFKDKATLTVDRSSSTAYMGLRSLTFGDSGVYFCVRRQLDYFDYWGQGASLTVSS VL: DIVVTQSPASLAVSLGQRATISCRASQSVSTSRYSYLHWYQQKPGQPPKLLIKYASNLESGVPARFSGSGSGTDFTLNIHPVGEEDTATYYCQHSWEFPFTFGSGTKLEIKR",0.31 nM,0.00035 s⁻¹,1.1e+06 M⁻¹ s⁻¹
"HCV 208A-605 (antibody, V domains shown) VH: EVQLQQSGPELEKPGASVKISCKTSGYTFTEYAIHWVKQSHGMSLEWIGGINPSNGNAIYNQIFKDKATLTVDRSSSTAYMGLRSLTFGDSGVYFCVRRQLDFFDYWGQGASLTVSS VL: DIVVTQSPASLAVSLGQRATISCRASQSVSTSRYSYLHWYQQKPGQPPKLLIKYASNLESGVPARFSGSGSGTDFTLNIHPVGEEDTATYYCQHSWEFPFTFGSGTKLEIKR",0.43 nM,0.00037 s⁻¹,870000 M⁻¹ s⁻¹
"HCV 208A-638 (antibody, V domains shown) VH: QGQLQQPGAEFVKPGASLKLSCRASGYTFTSYWIHWVKQRPGQGLEWIGEVDPSDSYINQNEKFRGKATLTVDKSSSTAYMQLGSLTSEDSAVYYCARHYYGVLDSWGQGTALTVSS VL: QIVLTQSPTIMSASLGERVTMTCTASSSVSSSYLHWFQQKPGSSPKLWIYSTSNLASGVPPRFSGSGSGTSYSLSISSVEAEDVATYYCLQFHRSPWTFGGGAKLEIKR",0.2 nM,0.00053 s⁻¹,2.7e+06 M⁻¹ s⁻¹
"HCV 208A-920 (antibody, V domains shown) VH: not shown VL: DIVLTQSPASLAVSLGQRATISCRASQSVSTSRYSYMHWYQQKPGQPPKLLIKYASNLESGVPARFSGSGSGTDFTLNIHPVAEEDTAAYYCQHSWEFPFTFGSGTKLEIKR",0.39 nM,0.00056 s⁻¹,1.5e+06 M⁻¹ s⁻¹
"HCV 208A-133 (antibody, V domains shown) VH: QLQQSGPVLVGPGASVMISCKTSGYTFTENAMHWVEQSHGKSLEWIGGVNPNNGDTIFNQKFKGKATLTVDKSSSTAFMEFRSLTSEESTVYYCVRRELDFFDYWGQGTSVTVSS VL: DIVLTQSPASLAVSLGQRATISCRASQSVSTSRYSYMHWYQQKPGQPPKLLIKYASNLESGVPARFSGSGSGTDFTLNIHPVAEEDTATYYCQHSWEFPFTFGSGTKLEIKR",0.41 nM,0.0005 s⁻¹,1.2e+06 M⁻¹ s⁻¹
"HCV 208A-159 (antibody, V domains shown) VH: QLQQSGPAQVKPGASVMISCKTSGYTFTENAMHWVKQSHGKSLEWIGGVNPNNGDTIFNQKFKDKAALTVDKSSSTAFMELRSLTSEESTVYYCVRRELDFFDYWGQGTSVTVSS VL: DIVLTQSPASLAVSLGQRATISCRASQSVSTSRYSYVHWYQQKPGQPPKLLIKYAANLESGVPARFSGSGSGTDFTLNIHPVAEEDAAAYYCQHSWEFPFTFGSGTKLEIKR",0.45 nM,0.00065 s⁻¹,1.4e+06 M⁻¹ s⁻¹
"HCV 208A-334 (antibody, V domains shown) VH: not shown VL: DIVLTQSPASLAVSLGQRATISCRASQSVSTSRYSYMHWYQQKPGQPPKLLIKYASNLESGVPARFSGSGSGTDFTLNIHPVAEEDTAAYYCQHSWGFPFTFGSGTKLEIKR",0.34 nM,0.00057 s⁻¹,1.7e+06 M⁻¹ s⁻¹
"HCV 208B-251 (antibody, V domains shown) VH: QLQQSGPVLVKPGASVKISCKTSGYTFTENAMHWVKQSHGKSLEWIGGVNPNNGDTIYNQKFKGKATLTVDKSSSTAFMELRSLTSEESPVYFCVRRELDFFDYWGQGTSVTVSS VL: DIVLTQSPASLAVSLGKKATISCRASQSVSTSRYSYMHWYQQKPGHPPKLLIKYASNLESGVPARFSGSGSGTDFTLNIHPVAEEDTAAYYCQHSWEFPFTFGSGTKLEIKR",0.58 nM,0.00065 s⁻¹,1.1e+06 M⁻¹ s⁻¹
"HCV 208B-556 (antibody, V domains shown) VH: QLQQSGPVLVKPGASVMISCKTSGYTFTENAMHWVKQSHGKSLEWIGGVNPNNGDTIFNQKFKGKATLTVDKSSSTAFMEFRSLTSEESTVYYCVRRELDFFDYWGQGTSVTVSS VL: DIVLTQSPASLAVSLGQRATISCRASQSVSTSRYSYMHWYQQKPGQPPKLLIKYASNLESGVPARFSGSGSGTDFTLNIHPVAEEDTATYYCQHSWEFPFTFGSGTKLEIKR",0.4 nM,0.0006 s⁻¹,1.5e+06 M⁻¹ s⁻¹
"HCV 208A-1064 (antibody, V domains shown) VH: EVQLQQSGPELVKPGASVKISCKTSGYTFTEYAMHWMKQSHGKSLEWIGGINPTNGDTIYNQKFKDKAKLTVDRSSSTAYMELRSLTSDDSALFYCARRELDYFASWGQGTTLTVSS VL: DIVLTQSPASLIVSLGQTATISCRASQSVSTSRFSYLHWIQQKPGQPPKLLIKYASNLESGVPVRFSGSGSGTDFTLNIHPVEEEDTATYFCQHSWEFPFTFGSGTKLKIKR",0.21 nM,0.00034 s⁻¹,1.6e+06 M⁻¹ s⁻¹
"HCV 208B-1094 (antibody, V domains shown) VH: EVQLQQSGPELVKPGASVKISCKTSGYTFTEYAMHWMKQSHGKSLEWIGGINPTNGDTIYNQRFKDKAKLTVDRSSSTAYMELRSLTSDDSALFYCARRELDYFASWGQGTTLTVSS VL: DIVLTQSPASLIVSLGQTATISCRASQSLSTSRFSYVHWIQQKPGQPPKLLIKYASNLESGVPVRFSGSGSGTDFTLNIHPVEEEDTATYFCQHSWEFPFTFGSGTKLKIKR",0.16 nM,0.00025 s⁻¹,1.5e+06 M⁻¹ s⁻¹
"HCV 208A-830 (antibody, V domains shown) VH: EVRLQQPGPEVEKPGASVKISCKTSGYTFTEYAIHWVKQSHGESLEWIGGINPSNGDPIYNQIFKDKATLTVDRSSNTAYMGLRSLTVGDSGVYFCVRRQLDYFDFWGQGASLTVSS VL: DIVLTQSPASLAVSLGQRATISCRSSQSVSTSRYSYLHWYQQKPGQPPKLLIKYASNLESGVPARFSGSGSGTDFTLNIHPVGEEDPATYYCQHSWEFPFTFGSGTKLEIKR",0.16 nM,0.00054 s⁻¹,3.4e+06 M⁻¹ s⁻¹
"HCV 208A-877 (antibody, V domains shown) VH: QLQQSGPELVKPGASVKISCKTSGYTFTENAMHWVKQSRGKSLEWIGGVNPNNGDTVYTQKFKGKATLTVAKSSSTAYMELRTMTCEESTVYYCASREPDFFDYWGQGSSVTVSS VL: QIVLTQSPAIMSVSPGEKVSMTCSASSSVTYMHWYQQKSGTSPKRWIYDTSELASGVPARFSGSGSGTTYSLTISSMEAEDAATYYCQQWSNKPLTFGAGTKLELKR",2.2 nM,0.0024 s⁻¹,1.1e+06 M⁻¹ s⁻¹
"HCV 208A-352 (antibody, V domains shown) VH: QGQMQQSGAELVKPGASVKLSCKTSGFTFSSSFISWLKQKPGQSLEWIAWIYAGTGNTNYNQKFTDKAQLTVDTSSSTAYMQFSSLTTEDSAIYYCAISGTGFTYWGQGTLVTVSA VL: DVLMAQTPLSLPVTLGDQASISCRSSQSLVHSNGNTYLEWFLQKPGQSPKLLIYNVSNRFSGVPDRFSGSGSGTDFTLKISRVEAEDLGVYYCFQGSHVPLTFGSGTKLEIKR",0.52 nM,5.4e-05 s⁻¹,100000 M⁻¹ s⁻¹
"HCV 208A-983 (antibody, V domains shown) VH: QGQMQQSGAELVKPGASVKLSCKTSGFTFSSSYFSWLKQKPGQSLEWIAWIYAGTGNTIYNQKFTDKAQLTVDTASSTAFMQLSSLTIEDSAIYYCAISGTGFTYWGQGTLVTVSA VL: DVLMTQTPLSLPVNLGDQASISCRSSQSLLHSNGNTYLEWFLQKPGQSPKLLIYNVSNRFSGVPDRFSGSGSGTDFTLKISRVEAEDLGVYYCFQGSHVPFTFGSGTKLAIKR",0.46 nM,4.6e-05 s⁻¹,97000 M⁻¹ s⁻¹
"HCV 208B-281 (antibody, V domains shown) VH: QGQLQQSGAELVKPGASVKLSCKTSGFTFSSSYISWLKQRPGQSLEWIAWIYAGTGGTNYNQKFTDKAQLTVDTSSSTAYMQFSSLTTEDSAIYYCAISGTGFIYWGQGTLVTVSA VL: DVLMTQTPLSLPVSLGDQASISCRSSQSLVHNNGNTYLEWFLQKPGQSPKLLIYKVSNRFSGVPDRFSGSGSGTDFTLKISRVEAEDLGVYYCFQGSHVPFTFGSGTKLEIKR",96 nM,0.00025 s⁻¹,2200 M⁻¹ s⁻¹
"HCV 208B-1024 (antibody, V domains shown) VH: EVQLVESGGDLVKPGGSLKLSCAASGFTFSNYGMSWVRQTPDKRLEWVATISSGGSYSYYPDSVKGRFTISRDNAKNILYLQMSSLKSEDTAMYYCASLYYGYGDYWGQGTAFTVSS VL: DVLMTQTPLSLPVSLGDQASISCRSSQSIVHSNGNTYLEWYLQKLGQSPKLLIYRVSNRFSGVPDRFSGSGSGTDFTLKISRVEAEDLGVYYCFQGSHVPWTFGGGTKLEIKR",15 nM,0.014 s⁻¹,1e+06 M⁻¹ s⁻¹
"HCV 208B-589 (antibody, V domains shown) VH: QVQLQQSGAGLAKPGASVKMSCKASGYTFTANKMHWAKQRPGQGLEWIGYIDPSSGYTEYNHKIQDKATLTADTSSSTAYMQLSSLTFEDSAVYYCTNFAYWGQGTLVTVSA VL: DIVMTQTPLTLSVTIGQPASISCKSSQSLLFTNGKTYLNWFLQRPGQSPKRLIYLLSKLDSGVPDRFSGSGSGTDFTLKISRVEAEDLGVYYCLQSTYFPLTFGAGTKLELKR",0.63 nM,0.00061 s⁻¹,960000 M⁻¹ s⁻¹
"HCV 208B-174 (antibody, V domains shown) VH: EVKLEESGGGLVQPGGSMKLSCVASGFSFSSYWMSWVRQSPEKGLDWVAEIRLRSDNYATHYAESVKGRFTISRDDSISRLYLQMNTLRAEDTGIYYCTWMTYWGQGTLVTVSA VL: QNVLTQSPAIMSASPGEKVTMSCSASSSVTYMFWYQLKPESSPRLLIYDTSNLASGVPVRFSGSGSGTSYSLTISRMEAEDAATYYCQEWSSYPLTFGAGTKLDLKR",0.25 nM,0.00018 s⁻¹,760000 M⁻¹ s⁻¹
"HCV 208A-134 (antibody, V domains shown) VH: QGQMQQSGAELAKPGASVKLSCKTSGFTFSSSYISWLKQKPGQSLEWIAWIYAGTGNTNYNQKFTDKAQLTVDTSSSTAYMQLSSLTTEDSAIYYCAISGTGFTYWGQGTLVTVSA VL: EVLMTQSPLSLPVSLGDQASISCRSSQSLEHTNGNTYLEWFLQRPGQPPKLLIYKVSSRFSGVPDRFSGSGSGTDFTLKISRVEAEDLGVYYCFQGSHVPFTFGSGTKLAIKR",2.1 nM,3.8e-05 s⁻¹,18000 M⁻¹ s⁻¹
